No end group written: not given here.
How the values were obtained:
[1] = system: T1, GCY-DLys-N-DArg-DCG (plasmin stable peptide)
T1 sequence: GCYKNRDCG

[2] = system: T2, GCYKNRDCG (plasmin sensitive peptide)
T2 sequence: GCYKNRDCG

[3] = target: receptors that recognize the sequence GRGDSPG; assay: cell-based or functional assay

plasmin, sequence (P00747 20-580): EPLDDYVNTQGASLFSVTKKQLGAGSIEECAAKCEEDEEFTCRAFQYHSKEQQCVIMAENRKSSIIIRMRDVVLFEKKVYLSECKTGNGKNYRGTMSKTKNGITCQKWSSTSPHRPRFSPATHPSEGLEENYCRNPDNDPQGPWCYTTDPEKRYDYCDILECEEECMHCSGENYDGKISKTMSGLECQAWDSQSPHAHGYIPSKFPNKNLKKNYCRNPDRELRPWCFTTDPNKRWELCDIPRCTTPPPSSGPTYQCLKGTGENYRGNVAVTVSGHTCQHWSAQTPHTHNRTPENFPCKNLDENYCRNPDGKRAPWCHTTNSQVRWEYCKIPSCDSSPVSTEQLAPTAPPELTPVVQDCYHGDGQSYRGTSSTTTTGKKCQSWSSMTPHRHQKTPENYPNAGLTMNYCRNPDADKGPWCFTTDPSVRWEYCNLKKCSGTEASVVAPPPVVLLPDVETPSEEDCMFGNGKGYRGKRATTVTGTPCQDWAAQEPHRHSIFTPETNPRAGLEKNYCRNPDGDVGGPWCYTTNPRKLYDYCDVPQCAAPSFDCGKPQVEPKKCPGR
plasmin, sequence (P00747 581-810): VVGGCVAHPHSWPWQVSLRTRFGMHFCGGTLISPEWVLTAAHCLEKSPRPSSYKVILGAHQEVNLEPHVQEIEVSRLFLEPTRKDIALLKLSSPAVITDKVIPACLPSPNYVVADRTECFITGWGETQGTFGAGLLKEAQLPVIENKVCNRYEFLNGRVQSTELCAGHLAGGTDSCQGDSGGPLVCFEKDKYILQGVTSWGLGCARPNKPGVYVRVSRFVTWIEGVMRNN

| Molecule | degradation of PEG-triacrylate/peptide gel by 0.2 units of plasmin in 200 microliters, 37 C [1] | degradation of PEG-triacrylate/peptide gel by 0.2 units of plasmin in 200 microliters, 37 C [2] | peptide degradation by plasmin, analytical C18 HPLC, plasmin at 1/1000 the peptide concentration, 37 C [2] | adhesion and spreading of human foreskin fibroblasts on conjugate addition PEG gels carrying the peptide on one of every 12 acrylates, 6 hours after seeding [3] [%] |
| --- | --- | --- | --- | --- |
| plasmin | The DLys, DArg configuration gel has not been shown to degrade by plasminolysis. | The L-Lys, L-Arg configuration of the peptide was readily degraded by the enzyme. In one case, after 6 hours no gel remained. | most of the GCYKNRDCG peptide was degraded in approximately one hour at 37 °C |  |
| GC(PEG acrylate)GYGRGDSPG [… (RGD-containing adhesion peptide)] |  |  |  | 50 |
